From the nanobody polyreactivity screen of Harvey et al. (2022)

Test: yeast display, Sf9 membrane polyspecificity reagent, FACS + sequencing; frameworks hold sequencing errors
In short: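 After 36–48 hours of galactose induction, yeast (Saccharomyces cerevisiae BJ5465) displaying a synthetic nanobody library were stained at 4 °C for 1 hour with 10% biotinylated, detergent-solubilized Sf9 membrane reagent. Streptavidin microbeads enriched the stained cells before FACS sorting into low and high (top ~1%) gates on anti-HA and streptavidin fluorescence. Each clone's polyreactivity label reflects its gate of origin.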

| Sequence | polyreactivity (PSR sort gate) |
| --- | --- |
| QVQHVESGGSLVQAGGSLRLSCAASGRTFRRYAMGWFRHAPGKAWELVAAIRSDGATYYADSVKGRFTISRDNAKNTVYLQMNSLKPEDTAVYYCNAVYVSSVTGHVDWGQGTQVTVSS | low polyreactivity |
| QVQLVESGGGLVQAGGSLRLSCAASVLIMGYYAMGWYRQAPGKERELVAAISSTGSTNYADSVKGRFTISRDNAKNTVYLQMNTLKQEDTAVYYCAAVPPRKDYQHMDYWGQGTQVTVSS | low polyreactivity |
| QVQLVESGGGLVQAGGSLRLSCAASGSIVSGYAMRWYRQAPGKQRELVAAISRGGSTNYADSVKGRFTISRDNAKNTVYLQMNSLKPEDTAVYYCANTPTKYHYAFGYWGQCTQVTVSS | low polyreactivity |
| QVQLVESGGGLVQAGGSLRLSCAASGSTFGEYAMGWSRQAPGKERELVATITSAGSTYYADSVKGRITFSRDNAKYTVYLQMNSLKPEDTAVYYCAVDPISQGHMDYWVQGTQVTVSS | low polyreactivity |
| QVQLVESGGGLVQAGGSLRLSCAASGFTLAFYGMGWYRQAPGKERELVAAISRSGGSTYYADSVKGRFTISRDNAKNTVYLQMNSLKPEDTAVYYCAAAFRAGAVYGYYWGQGTQVTVSS | high polyreactivity |
| QVQLVESGGGLVQAGGSLRLSCAASGYIFTIYAMGWYRQAPAKEREFVAAITWSGGRTYYADSVKGRFTISRDTAKNTVYLQMNSLKPEDSAVDYGAARVANYLSQMYYWGQGTQVTVSS | high polyreactivity |
| QVQLVESGGGLVQAGGSLRLSCAASGRIFGIYAMGWYRQAPGKERELVSRITGGGSTNYADSVKGRFTISRDNAKNTVYLQMNSLKPEDTAVYYCAADSYLSVYDPYGYWGQGTQVTVSS | low polyreactivity |
| QVQLVESGGGLVQAGGSLRLSYAASGFIFRYYAMGWYRQAPGKERELVAAIKASGGRTYYADSVKGRFTISRDNERNTVYLQINSLKPEDTAVYYCAASRSYQTFDYWGQGTQVTVSS | high polyreactivity |
| QFQLVESGGGLVQAGGSLRLSCAASGSTIPRNAMGWYRQAPGKERELVAVITGSGGSTYYADSVKGRFTISRDNAKNTVYLQMNSLKPEDTAVYYCAAKYRFYGFDYWGQGTQLTVSS | high polyreactivity |
| QVQLVESGGGLVQAGGSLRLSCAASGIIFTINAMGWYRQAPGKERELVARISRSVGSTTYADSVKGRFTISRDNAKNTVYLQMNSLKPEDTAVYYCAAQPYGYSYHYHRPWGLDYWGQGTQVTVSS | low polyreactivity |
| QVQLVESGGGLVQAGGSLRLSCAASGRIYKRNAMGWYRQAPGKERELVAAITGNVGSTYYADSVKGRFTISRDNAKNTVYLQMNSLKPEDTAVYYCAAETYPVWGVAFYYWGQGTQVTVSS | high polyreactivity |
| QVQLVESGGGLVQAGGSLRLSCAASGRTFVRYAMGWYRQAPGKERELVAAISRTGGTTYYADSVKGRFTISRDNAKNTVYLQMNSLKPEDTAVYYCNADPFYKYGYWGQGTKVTVSS | high polyreactivity |
| QVQLVESGGGLVQAGGSFRLSCAASGLISTTYAMGWYRQAPGKERELVAAINVSGGSTYYADSVKGRFTISRDHAKNTVYLQMNSLKPEDTAVYYCAARHDKRRQYYVGQSAFDYWGQGTQVTVSS | low polyreactivity |
| QVQLVESGGGLVQAGGSLRLSCAASGFTFRVYAMGWYRQAPGKERELVAAITKRGGSTYYADSVRGRFTISRDNAKNTVYLQMNSLKPEDTAVYYCATENTPHYASHGYWGQGTQVTVSS | high polyreactivity |
| QVQLVESGGGLVQAGGSLRLSCAASGFTFHWYVMGWYRQAPGKERELVAAISRNGGRTYYADSVKGRFTISRDNAKNTVYLQMNSLKPEDTAVYYCATDYGWLYINSIWEYDYWGQGTQVTVSS | high polyreactivity |
| QVQLVESGGGLVHAGGCLRLSFAASGFIFVVNPMGWYRPAPGKERELVAAINTSRGSTSYADSVKGRFTISRDNAKNTVYLQMNSVKPEDNAVYYCARDVWEKYRQSWGYVPLQGYDYCGQGTQVTVSS | low polyreactivity |
| QVQLVESGGGLVKAGGSLRLSCAASGRIDWYYAMGLYRQAPRKERDLVAAISRSGGTTYYADSVKGRFTISRDNAKNSVFLQMNSLQPEDTEVYYCAAVFHAYTGYEAWEEYEYWGQGTQVTVSA | high polyreactivity |
| QVQLVESGGGLVQAGGSLRLSCAASGIIFRPYAMGWYRQAPGKERELVAAITGSGVSTYYADSVKGRFTISRDNAKNTVYLQMNSLKPEDTAVYYCAKRYNRGYHRYDYWGQGTHVTVSS | low polyreactivity |
| QVQLVESGGGLVQAGGSLRLSCSASGSIFYYKAMGWYRQAPGKERELVAAISYRGTSTYYADSVKGRFTISRDNAKNTVSLQMNSLKPEDTAVYYCAAPALYTSRRYYYWGQGNQVTVSS | high polyreactivity |
| QVQHVESGGGLVQAGGSLRLSGAASGRTFYKNTMGWSRQAPGKERELVAGISQRGGRTYYADSVKGRFTISRDYAKNTVYLQMNSLNPEDTAVYYCAVRSYVHGFDYWGQGTQVTVSS | high polyreactivity |
| QVQLVESGGGLVQAGGSLRLSCAASGRIFGYYAMGSYRQAPGKERELVAAITRGGSTNYADSVKGRFTISRDNAKNTVYLQMNSLKPEDTAVYYCNARRYRPRSASYDYWGQGTQVTVSS | high polyreactivity |
| QVQHVESVGGLVQAGGSLRLSCAASGSIFSNNVMGWYRQAPGKERELVAAITVSGGRTYYADSVKGRFTISRDNAKNSVYLQMNSLKPEDTAVYYCATGVWKYSPDGDVGDQLSGYDYWGQGTQVTVSS | low polyreactivity |

| Sequence | polyreactivity (PSR sort gate) |
| --- | --- |
| QVQLVESGGGLVQAGGSLRLSCAASGRTFPYYAMGWYRQAPGKERELVAAISRRGASTYYADSVKGRFTISRDNAKNTVYLQMNSLKPEDTAVYYCNAVYRGYYSGELDYWGQGTQVTVSS | high polyreactivity |
| QVQLVESGGGFVQAGGSLRLSCAASGRLFFIYAMGWYRQAPGKDRELVAAITGRGGRTYYADSVKGRFTISRDKPKNTVYLEMYSQKPEDTAVYYCAADSRDSYLFYYWGQGTQVTVST | high polyreactivity |
| QVQLVESGGGLVQAGGSLRLSCAASGFTFAYHAMGWYRQAPGKERELVAGINSSGDGTYYADSVKGRFTISRDNAKNTVYLQMNSLKQEDTAVYYCAADYTGFYQDGSYVDYDYWGQGTQVTVSS | low polyreactivity |
| QDQLVESGACLVQAGGRLRLSCAASGFTFYYNAMGWYRQAPGKEREFVAAISRSGGSTTYADSVKGRFTISRDNAMNTGFLEMNSLKPEDTAVYYCNARRYRCKSYDYWGQGTQVTVSS | high polyreactivity |
| QVQLVESGGGLVQAGGSLRLSCAASGRTFYVKVMGWYRQEPGKERELVAVISRSDGSTTYADSVKGRFTISRDNAKNTVYLQMNSLKPEDTAVYYCNTDLPLGSGVLPDWELFDYWGQGTQVTVSS | low polyreactivity |
| QVQLVESGGGLVQAGGSLRLSCAASGSTFNWNAMGWYRPAPGKERELVAAISRSGGRTSYADSVKGRFTISRDNAKNTVYLQMNSLKPEDTAVYYCAAEKVGTRPSRDYDYWGQGTQVTVSS | high polyreactivity |
| QVQLVESGGGLVQAGGSLRLSCSASGRTFSRYAMGWYSQAPGTERELVATISRRGGSTYYADSVKGRFTISRDNAKNTVYLQMNSLKPEDTAVYYCAARLYTQYYYWGQGTQVTVSS | high polyreactivity |
| QVQLVESGGGLVQAGGSLRLSCAASGTIFYGNAMGWYRQAPGKEREYVAAITYSGGSTYYADSVKGRFSISRDNAKNTVYLQMNSLKPEDTAVYYCAKAYYPKGRYGFDYWGQGTQVTVSS | high polyreactivity |
| QVQLVESGGGLVQAGGSLRLSCAASGLIFPSYARGWYRQAPGKERELVAGINSGGSTNYADSVKGRFTISRDNAKNTVYLQMNSLKPEDTAVYYCAKDNNYYWYVSPRDYWGQGTQVTVSS | low polyreactivity |
| QVQLVESGGGLVQAGGSLRLSCAASGLTIASYVMGWYRQAPGKERELVAAISSSGDSTYYADSVKGRFTISRDNAKNTVYLQMNSLKPEDTAVYYCAAKDSVWGQGTQVTVSS | low polyreactivity |
| QVQLVESGGGLVQAGGSLRLSCAASGITFNTYAMGWYRQAPGKERELVAVITWSDGGTYYADSVKGRFTISRDNAKNTVYLQMNSLKPEDTAVYYCAADYYWGYDYWGQGTQVTVSS | low polyreactivity |
| QVQLVESGGGLVQAGGSLRLSCAASGRIFRRYAMGWYRQAPGKERELVAAISSGGSTNYADSVKGRFTLSRDNAKNTVYLQMNSLKPEDTAVYYCAARRTATTSRAYYYWGQGNQVTVSS | high polyreactivity |
| QVQLVESGGGLVQAGGSLRLSCAASGRTFGKYAMAWYRQAPGKERELVAAITTRVVITYYADSVKGRFTISRDNAKNTVYLQMNSLKPEDTAVYYCAADPEKIYRPVNHYYYWGQGTQVTVSS | low polyreactivity |
| QVQLVESGGGLVQAGGSLRLSCAASGSTFTRYAMGWYRQAPGKEREFVAAINWSGTSTYYADSVKGRFTISRDTAKNTVYLQMNSLKPEDTAVYYCNAYTVRSYRFDYWGQGTQVTVSS | high polyreactivity |
| QVQLVESGRGLVQAGGSLRLSCAPSGFTFYRNEMGWYRQAPGKERELVAAITFSGGITYYADSVKGRFTISRDNAKNTVYLQMNSLKPEDTAVYYGAAEGVGPARVYQGGEYNYWGQGTQVTVSS | low polyreactivity |
| QVQLVESGGGLVQAGGSLRLSCAASGRIFRYYAMGWYRQAPGKERELVAAINSGGSTKYADSVKGRFTISRDNAKNTVYLQMNSLTPEDTAVYYCNKDHAFSRYWYGGFDYWGQGTQVTVSS | high polyreactivity |
| QVQLVESGGGLVQAGGSLRLSSAASGRIFTYYTMGWSRQAPGKERELVAAISARGGNTYYADSVKGRFTISRDNAKNTVYLQMNSLKPEDTAVYYCAAGWVTSRTYYTHQIRNPLDYWGQGTQVTVSS | high polyreactivity |
| QFQLVESGGGLVQAGGSLRLSCAASGRIFDTYVMRWYRQAPGKERDLVAAISGSGGSTYYAYSVKGRFTISRDNAKNTVYLQMNSLKPEDTEVYYCAAARRYYAYRYDYWGQGTQVTVSS | high polyreactivity |
| QVQLVESGGGLVQAGGSLRLSCAASGSIFNYNDMGWYRQAPGKERELVATITNGGGTNYADSVKGRFTISRDNAKNTVFLQMNSLKPEDTAVYYCAAGRSGWGYDSWGQGTQVTVSS | low polyreactivity |
| QVQLVESVGGLLQAGGSLRLSCAASGRIFTGYAMGWYRQAPGKERELVAAISSRGGSTYYADSVKGRFTISRDNAKNTVYLQMNSLKPEDTAVYYCNAYQWRHRYTMYYWGQGTQVTVSS | high polyreactivity |
| QVQLEESGGGLVQAGGSLRLSCAASGILRDNAMGWYRQAPGKERELVATINGDGSTYADSVKGRFTISRDNAKNTVYLQMNSLKPEDTAVYYCAAPFTTTFDYWGQGTQVTVSS | low polyreactivity |
